Reference: patent US20230279085A1 (ABL BIO, published 2023)

B1: Ch11F11 chimeric antibody (antibody, human IgG1, V domains shown)
VH: EVQLQESGGGLVQPGGSLRLSCATSGFTFSDFYMEWVRQPPGKRLEWIAASRNKANDYTTEYSASVKGRFIVSRDTSQSILYLQMNALRAEDTAIYYCARDAHGKPFAYWGQGTLVTVSA
VL: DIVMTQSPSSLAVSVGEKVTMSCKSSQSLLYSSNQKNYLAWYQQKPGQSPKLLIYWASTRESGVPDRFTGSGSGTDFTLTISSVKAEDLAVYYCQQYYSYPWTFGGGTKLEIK
notes: Chimeric human IgG1; also called chimeric 11F11; Ch11F11(-RD)
B2: hu11F11(ver.3) (antibody, IgG1, V domains shown)
VH: EVQLVESGGGLVQPGGSLRLSCATSGFTFSDFYMEWVRQPPGKRLEWIAASRNKANDYTTEYSASVKGRFTISRDTSKSSLYLQMNSLRAEDTAIYYCARDAHGKPFAYWGQGTTVTVSS
VL: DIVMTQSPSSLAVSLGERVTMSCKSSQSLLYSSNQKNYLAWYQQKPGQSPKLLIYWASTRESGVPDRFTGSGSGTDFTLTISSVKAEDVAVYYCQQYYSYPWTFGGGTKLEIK
notes: Humanized IgG1; also called Hu11F1_ver3; Hu11F11_v3

Assays:
[1] = molecular target: alpha-synuclein monomer (Homo sapiens, UniProt P37840 1-140); test: SPR (BIAcore), antibody captured on Protein A, sample alpha-Syn monomer, 1:1 binding fit printed under a sensorgram that shows no binding (see non_binding)
Procedure: The quantitative analysis of the binding of alpha-synuclein antibody prepared in Example 1 to monomer and aggregate antigens was performed using BIAcore analysis.
(§1) The used instrument was T200 (GE Healthcare, S/N: 1565888). Protein A is used as a chip (GE Healthcare, Cat. 29-1275-56). 10 mM Glycine-HCl pH 1.5 (GE Healthcare, Cat. BR-1003-54) was regeneration buffer. The running buffer, analyte dilution, and the sample dilution buffer were HBS-EP. The α-syn antibodies (3A9, 9B11 and 11F11) prepared in Example 1 were diluted with 1×HBS-EP (GE Healthcare, Cat. BR-1006-69), and alpha-synuclein monomer (1 mg/ml) and fibril protein (3 mg/ml) were serially diluted in duplicate and analyzed at 6 concentrations (0, 0.39, 1.56, 6.25, 25, 100 nM) including 0 nM in total. For the capture, the monomer was for RU of 800 (theoretical), and a fibril was for RU of 100 (theoretical). The capture phase was performed at contact time of 60 seconds, a flow rate of 30 μl/min, and a stabilization period of 180 seconds. The association phase was performed at the association time of 120 seconds and the flow rate was 30 μl/min. The dissociation phase was performed at the dissociation time of 360 seconds and the flow rate of 30 μl/min. The regeneration phase was performed twice time at the regeneration time of 240 seconds (primary) and 60 seconds (secondary) and a flow rate of 30 μl/min. […]

[2] = molecular target: alpha-synuclein aggregate (fibril) (Homo sapiens, UniProt P37840 1-140); test: SPR (BIAcore), Protein A capture, file ProteinA-Fibril-main-5th, sample aSyn180330, 1:1 binding fit, 25 °C
Procedure: as §1, with “μl/min.” for “μl/min. The regeneration phase was performed twice time at the regeneration time of 240 seconds (primary) and 60 seconds (secondary) and a flow rate of 30 μl/min.”
The BIAcore analysis was performed to quantitatively analyze the binding affinity of the chimeric antibodies (Ch11F11) obtained in Example 8, and the humanized antibodies (Hu11F11) obtained in Example 9, according to the substantially same method of Example 2-3. […]

| Binder | koff [1] [s⁻¹] | kon [1] [M⁻¹ s⁻¹] | koff [2] [s⁻¹] |
| --- | --- | --- | --- |
| B1 | 2.65e-06 | 2.07e+06 | – |
| B2 | – | – | 0.000266 |
